Format in all cases: physicochemical
The nature of data set [1]: Western blotting for dimer content. The protocol: (§1) Cores suitable for air suspension coating and containing either human growth hormone (hGH) or erythropoietin (EPO) were prepared by essentially according to Example 1 using carbon dioxide for atomisation but with ethanol or ethanol containing solid carbon dioxide as the cold medium. For hGH the composition contained sodium hyaluronate (1%, about 4.1 g), diluent particles (rice starch, Sigma 57260, 1.83 g) and hGH (217 mg) and for EPO sodium hyaluronate (about 3.4), diluent particles (about 1.48 g) and EPO (11 mg). There was substantial stirring in the cold medium in the presence of solid carbon dioxide and little, if any, backflow of gas. The cold medium was removed by filtration and the cores dried using air at room temperature and atmospheric pressure. Cores suitable for air suspension coating were formed containing hGH (624 mg) and EPO (468 mg). […] No increase in the content of dimer or polymer forms of hGH were observed by HPLC size exclusion chromatography (SEC-HPLC, TSK2000 SWx1, Tosoh Corporation) according to Reslow et al (Sustained release of human growth hormone (hGH) from PLG-coated starch microspheres. Drug Delivery Systems and Sciences, 2002, 2,1 103-109).
(In general: Immunoblotting shows a protein as a band on a membrane.)

A short description of data set [2]: Electrophoresis (SDS-PAGE 12 and 18%) with silver staining of proteins after encapsulation in cores. The note with it: cores with sodium hyaluronate and rice starch diluent particles; carbon dioxide atomisation; cold medium ethanol or ethanol containing solid carbon dioxide; dried with air at room temperature. How it is done:
as §1

Data set [3] is described as follows: HPLC size exclusion chromatography (SEC-HPLC, TSK2000 SWx1) for dimer or polymer forms. The note with it: cores prepared per Example 10. The protocol: as §1
For orientation: In gel filtration, larger molecules generally elute earlier.

Regarding erythropoietin [EPO], the “increase in dimer content” value was “clearly higher increase” in data set [1] (absence of carbon dioxide in the cold medium (ethanol)) and “slight increase” in data set [1] (carbon dioxide present in the cold medium (ethanol)). In addition, the “degradation products detected by electrophoresis” value in data set [2] is “No degradation products”.

With human growth hormone [hGH], the “degradation products detected by electrophoresis” value in data set [2] is on record as “No degradation products”. The “increase in the content of dimer or polymer forms” value in data set [3] was “No increase”.

The values above are taken from patent US20100180464A1, “Cores and microcapsules suitable for parenteral administration as well as process for their manufacture” (STRATOSPHERE PHARMA AB, priority 2007, published 2010).
